The values below come from US20130116417.

As usually defined, the Kd is the free concentration of one partner at which half of the binding sites on the other are occupied at equilibrium, for simple one-to-one binding.

This series relates to monoclonal antibody 2G12 (anti-HIV gp120). The series is described as follows: filter.

The sequence “CTGTTGTTCCGCAGTCACCTTNNNNNNNNNNNNNNNNNNNNNNNNNCCCGTACCCGTATTTGGTGGCAAGGATGACAAGGATTTTATATTTTATATTTTTATTTTATTATCGGGTACGGG [initial random glyco-DNA library]” displayed a binding (library template (-)-strand listed, assayed (+)-strand has 5-ethynyl-dU in place of T, glycosylated with Man4-azide, initial random library, less than 3% bound) below 3 % bound.
For the setting “each U is 5-ethynyl-dU glycosylated with Man4-azide by CuAAAC click (10 sites), T in the primer region unmodified, 20 mM Tris pH 7.5, 100 mM NaCl, 2 mM MgSO4, 0.02% Tween-20, room temperature, 3 h, after 7 SELMA rounds”, “CACCAAATACGGGTACGGGCCCGGCUGUUUCAGAUGCUGUAAGUAAGGUGACUGCGGAACAACAG [Man4-16 (clone 16 glyco-DNA)]” had a Kd of 220 nM.
